From patent publication US5633227

Columns and labels:
[1] = target: human mast cell tryptase purified from human lung (human) (UniProt Q15661); experiment: VIP assay (loss of full-length Dns-VIP), Dixon plot, human lung tryptase
[2] = target: human mast cell tryptase purified from human lung (human) (UniProt Q15661); experiment: VIP assay (formation of Dns-VIP-(1-14)), Dixon plot, human lung tryptase
[3] = target: human mast cell tryptase purified from human lung (human) (UniProt Q15661); experiment: GPK-AMC enzyme inhibition assay, Dixon plot, human lung tryptase
[4] = target: dansylated vasoactive intestinal peptide (Dns-VIP, 28 amino acids) (Homo sapiens (Human)) (UniProt P01282)

Sequence of C-terminal domain of SLPI (amino acids 50-107) (P03973 75-132 limits assumed): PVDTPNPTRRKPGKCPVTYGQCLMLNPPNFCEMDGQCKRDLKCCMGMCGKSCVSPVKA
Sequence of N-terminal domain of SLPI (amino acids 1-49) (P03973 26-74 limits assumed): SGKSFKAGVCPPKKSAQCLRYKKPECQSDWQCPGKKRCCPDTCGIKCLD
Sequence of recombinant secretory leukocyte protease inhibitor (SLPI) (P03973 26-132): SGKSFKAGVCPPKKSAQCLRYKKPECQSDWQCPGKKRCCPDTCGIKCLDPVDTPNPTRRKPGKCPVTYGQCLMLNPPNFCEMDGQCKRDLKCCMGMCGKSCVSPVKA

Row | Substance | Ki [1] [nM] | Ki [2] [nM] | Ki [3] [nM] | kcat/Km for the disappearance of full-length Dns-VIP (1-28), no addition [4] [M⁻¹ s⁻¹]
1 | recombinant secretory leukocyte protease inhibitor (SLPI) (from UniProt P03973) | 8 |  |  | 
2 | C-terminal domain of SLPI (amino acids 50-107) (from UniProt P03973) |  | 1.6 | 4.8 | 
3 | human mast cell tryptase purified from human lung (from UniProt Q15661) (enzyme) |  |  |  | 1.8e+07
4 | N-terminal domain of SLPI (amino acids 1-49) (from UniProt P03973) |  | 130 | 290 | 
